Hemolysis (red blood cells) after pre-incubation of PRX302 with enzymatically active PSA in aqueous buffer data for 1 substance are collected here from US20210205408A1.

The target in the assay is PRX302 (modified proaerolysin in which the furin site is replaced with a PSA-specific cleavage site) (Aeromonas hydrophilia (engineered variant)) (UniProt P09167). The assay is described as follows: cell-based or functional assay.

Take “Prostate Specific Antigen (PSA), enzymatically active (from UniProt P07288 25-261) (enzyme)”: the hemolysis (red blood cells) after pre-incubation of PRX302 with enzymatically active PSA in aqueous buffer is 45 % hemolysis.
